# From patent publication US20250043302A1, “MUTATED HYDROXYPHENYLPYRUVATE DIOXYGENASE POLYPEPTIDE, AND CODING GENE AND USE THEREOF” (BEIJING DABEINONG BIOTECHNOLOGY CO., LTD., priority 2021, published 2025)
# Key:
# [1] = system: Arabidopsis thaliana T1 plants; experiment: Mesotrione tolerance of transgenic Arabidopsis thaliana T1 plants (spray, bleached leaf area grade, damage score); assay type: in vivo; set-up: Scores: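 damage score 0-100 computed as Σ(N×S)/(T×M)×100 over grades 0-3 with higher meaning more damage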
# Procedure, shortened: (§1)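 Read-out: per-plant damage grade 0–3 from proportion of bleached leaf area at 7 DAT (1 <50%, 2 >50%, 3 100%). Plants were T1 transformants, glufosinate-selected, plus wild-type CK, sprayed 18 days post-sowing. Rates: topramezone 25–200, isoxaflutole 35–280, mesotrione 52.5–420 g ai/ha.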
# [2] = system: Arabidopsis thaliana T1 plants; experiment: Isoxaflutole tolerance of transgenic Arabidopsis thaliana T1 plants (spray, bleached leaf area grade, damage score); assay type: in vivo;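 on Scores: Weighted damage index from 0 to 100 where higher means more damage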
# Procedure, shortened: as §1
# [3] = mesotrione 210 g ai/ha, number of plants in grade
# [4] = mesotrione 420 g ai/ha, number of plants in grade
# [5] = isoxaflutole 140 g ai/ha, number of plants in grade
# [6] = isoxaflutole 280 g ai/ha, number of plants in grade
molecule,measurement,setting,value
"AsHPPDm-A111T-F383W-02: nucleotide sequence encoding Avena sativa HPPD with A111T+F383W; vector DBN11782 (nucleic acid, AsHPPDm-A111T-F383W-02 Nucleotide Sequence, vector DBN11782) DNA: ATGCCACCTACTCCAGCTACAGCTACTGGTGCTGCTGCTGCTGCCGTTACTCCTGAGCACGCTGCCAGGTCATTCCCCAGGGTGGTTCGCGTGAACCCCAGATCTGATAGGTTCCCAGTTCTGAGCTTCCACCATGTTGAGCTGTGGTGCGCTGATGCTGCTTCTGCTGCTGGCAGGTTCTCTTTCGCTCTTGGTGCTCCACTCGCTGCTAGATCTGATCTGTCTACAGGAAATAGCGCTCATGCCTCACTCCTGCTTCGCTCAGGTGCTTTGGCCTTCCTCTTCACCGCTCCATATGCTCCCCCACCTCAGGAGGCTGCTACTGCTGCTACTACAGCCTCCATTCCAAGCTTCTCAGCTGATGCCGCTAGAACCTTCGCTGCTGCTCATGGACTTGCCGTGAGGTCTGTTGGTGTTCGCGTGGCTGATGCTGCTGAGGCTTTCAGAGTTTCCGTTGCCGGCGGAGCTAGGCCAGCTTTCGCTCCTGCTGATTTGGGACATGGTTTCGGCCTGGCTGAGGTTGAGCTTTACGGTGACGTGGTTCTCCGCTTCGTGTCTTACCCAGATGAGACTGACCTGCCTTTCCTTCCCGGCTTCGAGAGAGTTTCCTCTCCTGGTGCCGTGGATTACGGCCTGACAAGGTTCGACCACGTGGTTGGAAACGTTCCCGAGATGGCTCCAGTGATCGATTACATGAAGGGCTTCCTTGGATTCCATGAGTTCGCCGAGTTCACTGCTGAGGACGTGGGAACCACTGAGTCCGGTTTGAACTCTGTGGTTCTCGCCAACAATTCTGAGGCTGTTTTGCTCCCTCTGAATGAGCCTGTGCATGGAACCAAGAGGAGAAGCCAGATTCAAACTTACCTGGAGTACCACGGTGGCCCTGGAGTTCAGCATATCGCCCTTGCTTCTAATGATGTGTTGCGCACACTCAGAGAGATGCGCGCCAGAACCCCCATGGGAGGTTTCGAGTTCATGGCCCCACCACAGGCTAAGTACTACGAGGGCGTTAGAAGGATTGCTGGAGACGTGTTGAGCGAGGAGCAGATCAAGGAGTGCCAAGAGCTGGGTGTTCTTGTGGATAGGGATGACCAGGGCGTTCTGCTTCAAATTTTCACTAAGCCAGTGGGCGACCGCCCTACATTCTGGCTTGAGATGATTCAAAGAATCGGCTGCATGGAGAAGGATGAGGTTGGACAGGAGTACCAAAAGGGCGGATGCGGTGGCTTCGGAAAGGGTAACTTCAGCGAGTTGTTCAAGTCAATCGAGGACTACGAGAAGAGCCTCGAGGTGAAGCAGTCAGTGGTTGCCCAAAAGTCCTGA",Resistance evaluation,"[1]; Table 12, mesotrione 210 g ai/ha (2×)",Moderately
same,Classification and statistics of the grade of pesticide damage Grade 0,"[1]; Table 12, mesotrione 210 g ai/ha (2×), number of plants at grade 0",4
same,Classification and statistics of the grade of pesticide damage Grade 1,"[1]; Table 12, mesotrione 210 g ai/ha (2×), number of plants at grade 1",10
same,Classification and statistics of the grade of pesticide damage Grade 2,"[1]; Table 12, mesotrione 210 g ai/ha (2×), number of plants at grade 2",2
same,Classification and statistics of the grade of pesticide damage Grade 3,"[1]; Table 12, mesotrione 210 g ai/ha (2×), number of plants at grade 3",0
same,Scores,"[1]; Table 12, mesotrione 210 g ai/ha (2×), pesticide damage score",29
same,Resistance evaluation,"[1]; Table 12, mesotrione 420 g ai/ha (4×)",Poorly resistant
same,Classification and statistics of the grade of pesticide damage Grade 0,"[1]; Table 12, mesotrione 420 g ai/ha (4×), number of plants at grade 0",0
same,Classification and statistics of the grade of pesticide damage Grade 1,"[1]; Table 12, mesotrione 420 g ai/ha (4×), number of plants at grade 1",2
same,Classification and statistics of the grade of pesticide damage Grade 2,"[1]; Table 12, mesotrione 420 g ai/ha (4×), number of plants at grade 2",13
same,Classification and statistics of the grade of pesticide damage Grade 3,"[1]; Table 12, mesotrione 420 g ai/ha (4×), number of plants at grade 3",1
same,Scores,"[1]; Table 12, mesotrione 420 g ai/ha (4×), pesticide damage score",65
same,Resistance evaluation,"[2]; Table 11, isoxaflutole 140 g ai/ha (2×)",Moderately
same,Classification and statistics of the grade of pesticide damage Grade 0,"[2]; Table 11, isoxaflutole 140 g ai/ha (2×), number of plants at grade 0",6
same,Classification and statistics of the grade of pesticide damage Grade 1,"[2]; Table 11, isoxaflutole 140 g ai/ha (2×), number of plants at grade 1",8
same,Classification and statistics of the grade of pesticide damage Grade 2,"[2]; Table 11, isoxaflutole 140 g ai/ha (2×), number of plants at grade 2",2
same,Classification and statistics of the grade of pesticide damage Grade 3,"[2]; Table 11, isoxaflutole 140 g ai/ha (2×), number of plants at grade 3",0
same,Scores,"[2]; Table 11, isoxaflutole 140 g ai/ha (2×), pesticide damage score",25
same,Resistance evaluation,"[2]; Table 11, isoxaflutole 280 g ai/ha (4×)",Poorly resistant
same,Classification and statistics of the grade of pesticide damage Grade 0,"[2]; Table 11, isoxaflutole 280 g ai/ha (4×), number of plants at grade 0",4
same,Classification and statistics of the grade of pesticide damage Grade 1,"[2]; Table 11, isoxaflutole 280 g ai/ha (4×), number of plants at grade 1",4
same,Classification and statistics of the grade of pesticide damage Grade 2,"[2]; Table 11, isoxaflutole 280 g ai/ha (4×), number of plants at grade 2",8
same,Classification and statistics of the grade of pesticide damage Grade 3,"[2]; Table 11, isoxaflutole 280 g ai/ha (4×), number of plants at grade 3",0
same,Scores,"[2]; Table 11, isoxaflutole 280 g ai/ha (4×), pesticide damage score",42
"AsHPPDm-F415W-02: nucleotide sequence encoding Avena sativa HPPD with F415W; vector DBN11791 (nucleic acid, AsHPPDm-F415W-02 Nucleotide Sequence, vector DBN11791) DNA: ATGCCACCTACTCCAGCTACAGCTACTGGTGCTGCTGCTGCTGCCGTTACTCCTGAGCACGCTGCCAGGTCATTCCCCAGGGTGGTTCGCGTGAACCCCAGATCTGATAGGTTCCCAGTTCTGAGCTTCCACCATGTTGAGCTGTGGTGCGCTGATGCTGCTTCTGCTGCTGGCAGGTTCTCTTTCGCTCTTGGTGCTCCACTCGCTGCTAGATCTGATCTGTCTACAGGAAATAGCGCTCATGCCTCACTCCTGCTTCGCTCAGGTGCTTTGGCCTTCCTCTTCACCGCTCCATATGCTCCCCCACCTCAGGAGGCTGCTACTGCTGCTGCTACAGCCTCCATTCCAAGCTTCTCAGCTGATGCCGCTAGAACCTTCGCTGCTGCTCATGGACTTGCCGTGAGGTCTGTTGGTGTTCGCGTGGCTGATGCTGCTGAGGCTTTCAGAGTTTCCGTTGCCGGCGGAGCTAGGCCAGCTTTCGCTCCTGCTGATTTGGGACATGGTTTCGGCCTGGCTGAGGTTGAGCTTTACGGTGACGTGGTTCTCCGCTTCGTGTCTTACCCAGATGAGACTGACCTGCCTTTCCTTCCCGGCTTCGAGAGAGTTTCCTCTCCTGGTGCCGTGGATTACGGCCTGACAAGGTTCGACCACGTGGTTGGAAACGTTCCCGAGATGGCTCCAGTGATCGATTACATGAAGGGCTTCCTTGGATTCCATGAGTTCGCCGAGTTCACTGCTGAGGACGTGGGAACCACTGAGTCCGGTTTGAACTCTGTGGTTCTCGCCAACAATTCTGAGGCTGTTTTGCTCCCTCTGAATGAGCCTGTGCATGGAACCAAGAGGAGAAGCCAGATTCAAACTTACCTGGAGTACCACGGTGGCCCTGGAGTTCAGCATATCGCCCTTGCTTCTAATGATGTGTTGCGCACACTCAGAGAGATGCGCGCCAGAACCCCCATGGGAGGTTTCGAGTTCATGGCCCCACCACAGGCTAAGTACTACGAGGGCGTTAGAAGGATTGCTGGAGACGTGTTGAGCGAGGAGCAGATCAAGGAGTGCCAAGAGCTGGGTGTTCTTGTGGATAGGGATGACCAGGGCGTTCTGCTTCAAATTTTCACTAAGCCAGTGGGCGACCGCCCTACATTCTTCCTTGAGATGATTCAAAGAATCGGCTGCATGGAGAAGGATGAGGTTGGACAGGAGTACCAAAAGGGCGGATGCGGTGGCTTCGGAAAGGGTAACTGGAGCGAGTTGTTCAAGTCAATCGAGGACTACGAGAAGAGCCTCGAGGTGAAGCAGTCAGTGGTTGCCCAAAAGTCCTGA",Resistance evaluation,[1]; mesotrione 210 g ai/ha,Non-resistant
same,Scores,[1]; mesotrione 210 g ai/ha,81
same,Classification and statistics of the grade of pesticide damage Grade 0,[1]; [3],0
same,Classification and statistics of the grade of pesticide damage Grade 1,[1]; [3],0
same,Classification and statistics of the grade of pesticide damage Grade 2,[1]; [3],9
same,Classification and statistics of the grade of pesticide damage Grade 3,[1]; [3],7
same,Resistance evaluation,[1]; mesotrione 420 g ai/ha,Non-resistant
same,Scores,[1]; mesotrione 420 g ai/ha,100
same,Classification and statistics of the grade of pesticide damage Grade 0,[1]; [4],0
same,Classification and statistics of the grade of pesticide damage Grade 1,[1]; [4],0
same,Classification and statistics of the grade of pesticide damage Grade 2,[1]; [4],0
same,Classification and statistics of the grade of pesticide damage Grade 3,[1]; [4],16
same,Resistance evaluation,[2]; isoxaflutole 140 g ai/ha,Moderately
same,Scores,[2]; isoxaflutole 140 g ai/ha,31
same,Classification and statistics of the grade of pesticide damage Grade 0,[2]; [5],5
same,Classification and statistics of the grade of pesticide damage Grade 1,[2]; [5],7
same,Classification and statistics of the grade of pesticide damage Grade 2,[2]; [5],4
same,Classification and statistics of the grade of pesticide damage Grade 3,[2]; [5],0
same,Resistance evaluation,[2]; isoxaflutole 280 g ai/ha,Poorly
same,Scores,[2]; isoxaflutole 280 g ai/ha,63
same,Classification and statistics of the grade of pesticide damage Grade 0,[2]; [6],0
same,Classification and statistics of the grade of pesticide damage Grade 1,[2]; [6],2
same,Classification and statistics of the grade of pesticide damage Grade 2,[2]; [6],14
same,Classification and statistics of the grade of pesticide damage Grade 3,[2]; [6],0
